Results taken from patent publication US20140072613A1, “Compositions and Methods for Treating Cutaneous Scarring” (priority 2012, published 2014).

Assays:
Test in all cases: biochemical
Format in all cases: biochemical
266 human kinases [1] = molecular target: 266 human kinases (Homo sapiens, UniProt Q9HBH9); conditions: Mnk2(h); 100 μM
Outline: (§1)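 Radiometric filter-binding format: a positively charged substrate takes up radiolabelled phosphate from ATP unless the kinase is inhibited, then is captured on a negatively charged filter membrane. Counts from scintillation are expressed relative to a 100% activity control.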

266 human kinases [2] = molecular target: 266 human kinases (Homo sapiens, UniProt P10721, V560G); conditions: cKit(V560G)(h); 100 μM
Outline: as §1

266 human kinases [3] = molecular target: T1, 266 human kinases (Homo sapiens, UniProt Q9UBE8); conditions: NLK(h); 100 μM
T1 sequence (Q9UBE8 1-527): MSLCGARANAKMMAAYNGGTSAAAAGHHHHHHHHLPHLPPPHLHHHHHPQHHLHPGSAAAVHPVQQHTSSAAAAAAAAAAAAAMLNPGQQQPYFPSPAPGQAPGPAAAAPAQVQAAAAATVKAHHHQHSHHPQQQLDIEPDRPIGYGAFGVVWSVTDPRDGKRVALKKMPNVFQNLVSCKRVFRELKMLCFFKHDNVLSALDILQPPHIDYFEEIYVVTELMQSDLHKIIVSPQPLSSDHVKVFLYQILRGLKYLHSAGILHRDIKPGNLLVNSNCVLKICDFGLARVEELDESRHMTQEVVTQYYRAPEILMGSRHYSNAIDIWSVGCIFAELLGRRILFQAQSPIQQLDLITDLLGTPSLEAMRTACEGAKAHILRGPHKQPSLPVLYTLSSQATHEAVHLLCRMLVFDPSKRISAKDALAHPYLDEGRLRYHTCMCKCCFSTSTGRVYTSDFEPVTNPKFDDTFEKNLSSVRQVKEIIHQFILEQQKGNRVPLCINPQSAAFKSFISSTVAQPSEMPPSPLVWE
Outline: as §1

266 human kinases [4] = molecular target: T2, 266 human kinases (Homo sapiens, UniProt O00418); conditions: eEF-2K(h); 100 μM
T2 sequence (O00418 whole entry, looked up): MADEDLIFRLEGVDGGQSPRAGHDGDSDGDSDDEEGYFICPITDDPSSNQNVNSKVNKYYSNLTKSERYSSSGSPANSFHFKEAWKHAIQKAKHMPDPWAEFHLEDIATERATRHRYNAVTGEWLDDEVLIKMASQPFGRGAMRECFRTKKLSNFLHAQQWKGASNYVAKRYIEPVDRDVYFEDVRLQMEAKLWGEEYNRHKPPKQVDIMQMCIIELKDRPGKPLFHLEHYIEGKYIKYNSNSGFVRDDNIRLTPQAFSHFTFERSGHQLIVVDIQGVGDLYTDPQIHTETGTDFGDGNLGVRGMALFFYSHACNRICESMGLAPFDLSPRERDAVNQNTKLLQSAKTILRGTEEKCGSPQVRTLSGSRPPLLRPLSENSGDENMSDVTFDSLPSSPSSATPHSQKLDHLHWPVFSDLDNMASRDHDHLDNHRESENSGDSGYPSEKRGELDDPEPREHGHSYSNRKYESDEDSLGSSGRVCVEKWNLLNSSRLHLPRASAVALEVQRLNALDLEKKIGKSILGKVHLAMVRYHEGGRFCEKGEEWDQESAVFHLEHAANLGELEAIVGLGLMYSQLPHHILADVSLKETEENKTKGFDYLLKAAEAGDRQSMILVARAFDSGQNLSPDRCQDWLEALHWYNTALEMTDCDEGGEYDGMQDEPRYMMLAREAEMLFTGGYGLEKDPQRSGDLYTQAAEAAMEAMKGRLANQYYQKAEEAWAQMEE
Outline: as §1

266 human kinases [5] = molecular target: T3, 266 human kinases (Homo sapiens, UniProt Q7L7X3); conditions: TAO1(h); 100 μM
T3 sequence (Q7L7X3 1-1001): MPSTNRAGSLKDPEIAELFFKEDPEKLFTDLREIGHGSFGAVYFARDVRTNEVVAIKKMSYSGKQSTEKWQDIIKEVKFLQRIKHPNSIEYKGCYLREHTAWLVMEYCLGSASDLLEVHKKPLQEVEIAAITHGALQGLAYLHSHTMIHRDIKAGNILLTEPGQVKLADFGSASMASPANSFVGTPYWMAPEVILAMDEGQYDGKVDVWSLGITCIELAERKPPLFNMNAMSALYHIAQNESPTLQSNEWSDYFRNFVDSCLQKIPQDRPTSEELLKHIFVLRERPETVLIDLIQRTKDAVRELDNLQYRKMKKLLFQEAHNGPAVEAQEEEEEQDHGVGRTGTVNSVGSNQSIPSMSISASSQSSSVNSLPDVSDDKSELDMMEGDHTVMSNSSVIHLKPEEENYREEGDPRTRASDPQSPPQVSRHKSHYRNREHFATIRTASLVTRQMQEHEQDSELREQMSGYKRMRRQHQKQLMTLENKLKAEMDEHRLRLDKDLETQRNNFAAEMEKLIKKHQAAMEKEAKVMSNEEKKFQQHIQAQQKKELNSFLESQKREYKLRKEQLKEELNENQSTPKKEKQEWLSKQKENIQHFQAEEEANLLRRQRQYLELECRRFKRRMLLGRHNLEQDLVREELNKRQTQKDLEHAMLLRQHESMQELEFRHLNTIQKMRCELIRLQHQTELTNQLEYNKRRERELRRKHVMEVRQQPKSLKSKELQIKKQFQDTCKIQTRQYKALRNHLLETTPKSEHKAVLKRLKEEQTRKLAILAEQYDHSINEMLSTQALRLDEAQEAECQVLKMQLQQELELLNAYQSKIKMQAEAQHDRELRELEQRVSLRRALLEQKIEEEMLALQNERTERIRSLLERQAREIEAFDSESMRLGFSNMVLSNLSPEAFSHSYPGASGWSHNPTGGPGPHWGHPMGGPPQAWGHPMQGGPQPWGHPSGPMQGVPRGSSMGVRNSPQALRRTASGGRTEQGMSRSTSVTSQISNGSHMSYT
Outline: as §1

266 human kinases [6] = molecular target: 266 human kinases (Homo sapiens, UniProt Q9Y243); conditions: PKBγ(h); 100 μM
266 human kinases (Homo sapiens, UniProt Q9Y243), sequence (Q9Y243 whole entry): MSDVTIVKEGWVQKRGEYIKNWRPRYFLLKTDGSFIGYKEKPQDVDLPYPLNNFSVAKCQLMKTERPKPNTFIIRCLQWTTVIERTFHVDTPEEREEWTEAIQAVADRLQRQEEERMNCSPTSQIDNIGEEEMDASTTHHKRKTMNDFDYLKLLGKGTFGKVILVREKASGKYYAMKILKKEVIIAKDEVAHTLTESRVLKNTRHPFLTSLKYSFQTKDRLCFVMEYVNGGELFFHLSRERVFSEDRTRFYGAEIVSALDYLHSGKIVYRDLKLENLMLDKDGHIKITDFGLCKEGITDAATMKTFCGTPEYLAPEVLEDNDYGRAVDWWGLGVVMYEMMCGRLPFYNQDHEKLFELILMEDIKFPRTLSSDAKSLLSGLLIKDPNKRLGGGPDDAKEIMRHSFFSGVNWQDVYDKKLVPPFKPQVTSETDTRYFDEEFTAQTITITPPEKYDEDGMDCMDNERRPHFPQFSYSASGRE
Outline: as §1

266 human kinases [7] = molecular target: 266 human kinases (Homo sapiens, UniProt P10721, D816H); conditions: cKit(D816H)(h); 100 μM
Outline: as §1

266 human kinases [8] = molecular target: 266 human kinases (Homo sapiens, UniProt Q9HCP0); conditions: CK1γ1(h); 100 μM
266 human kinases (Homo sapiens, UniProt Q9HCP0), sequence (Q9HCP0 whole entry): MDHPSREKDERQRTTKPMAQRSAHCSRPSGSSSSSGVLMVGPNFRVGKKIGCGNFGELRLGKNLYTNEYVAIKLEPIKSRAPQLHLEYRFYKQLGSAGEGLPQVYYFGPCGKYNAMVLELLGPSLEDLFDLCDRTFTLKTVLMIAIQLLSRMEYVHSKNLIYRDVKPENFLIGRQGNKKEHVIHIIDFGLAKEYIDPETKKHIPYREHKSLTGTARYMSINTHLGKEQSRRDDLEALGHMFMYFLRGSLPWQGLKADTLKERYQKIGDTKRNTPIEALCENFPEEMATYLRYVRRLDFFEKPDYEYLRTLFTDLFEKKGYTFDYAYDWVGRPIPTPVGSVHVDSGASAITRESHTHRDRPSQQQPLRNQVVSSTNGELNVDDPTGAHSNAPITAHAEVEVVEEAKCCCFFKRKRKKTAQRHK
Outline: as §1

266 human kinases [9] = molecular target: 266 human kinases (Homo sapiens, UniProt P49760); conditions: CLK2(h); 100 μM
266 human kinases (Homo sapiens, UniProt P49760), sequence (P49760 whole entry): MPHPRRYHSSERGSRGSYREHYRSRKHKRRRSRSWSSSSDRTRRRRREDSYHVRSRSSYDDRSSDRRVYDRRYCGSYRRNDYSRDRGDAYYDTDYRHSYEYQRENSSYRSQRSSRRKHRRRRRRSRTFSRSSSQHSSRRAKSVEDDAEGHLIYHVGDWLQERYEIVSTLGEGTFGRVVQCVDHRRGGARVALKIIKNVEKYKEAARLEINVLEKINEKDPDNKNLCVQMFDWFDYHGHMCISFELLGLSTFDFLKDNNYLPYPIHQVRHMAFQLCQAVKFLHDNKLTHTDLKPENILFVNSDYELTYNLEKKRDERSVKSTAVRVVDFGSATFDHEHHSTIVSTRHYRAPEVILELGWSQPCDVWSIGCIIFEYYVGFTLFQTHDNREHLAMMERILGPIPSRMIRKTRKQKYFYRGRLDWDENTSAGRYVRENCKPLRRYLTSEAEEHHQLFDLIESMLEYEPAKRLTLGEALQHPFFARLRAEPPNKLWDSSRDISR
Outline: as §1

266 human kinases [10] = molecular target: 266 human kinases (Homo sapiens, UniProt P53350); conditions: Plk1(h); 100 μM
266 human kinases (Homo sapiens, UniProt P53350), sequence (P53350 whole entry): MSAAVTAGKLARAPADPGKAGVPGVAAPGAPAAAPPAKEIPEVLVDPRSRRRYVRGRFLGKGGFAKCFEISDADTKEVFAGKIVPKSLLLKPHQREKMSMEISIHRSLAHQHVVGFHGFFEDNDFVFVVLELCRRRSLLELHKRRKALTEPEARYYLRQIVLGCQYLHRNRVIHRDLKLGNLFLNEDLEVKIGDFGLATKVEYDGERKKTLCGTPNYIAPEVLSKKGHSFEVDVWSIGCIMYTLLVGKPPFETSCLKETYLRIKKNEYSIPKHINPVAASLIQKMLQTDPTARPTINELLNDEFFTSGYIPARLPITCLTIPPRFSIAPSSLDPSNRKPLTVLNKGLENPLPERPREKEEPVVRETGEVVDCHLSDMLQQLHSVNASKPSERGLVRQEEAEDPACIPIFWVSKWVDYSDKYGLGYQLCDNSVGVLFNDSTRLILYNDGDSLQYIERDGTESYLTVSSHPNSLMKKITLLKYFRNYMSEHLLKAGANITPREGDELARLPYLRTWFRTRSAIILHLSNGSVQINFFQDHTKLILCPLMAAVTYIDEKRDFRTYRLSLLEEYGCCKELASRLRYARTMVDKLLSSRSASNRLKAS
Outline: as §1

266 human kinases (Homo sapiens, UniProt Q9HBH9), sequence (Q9HBH9 whole entry): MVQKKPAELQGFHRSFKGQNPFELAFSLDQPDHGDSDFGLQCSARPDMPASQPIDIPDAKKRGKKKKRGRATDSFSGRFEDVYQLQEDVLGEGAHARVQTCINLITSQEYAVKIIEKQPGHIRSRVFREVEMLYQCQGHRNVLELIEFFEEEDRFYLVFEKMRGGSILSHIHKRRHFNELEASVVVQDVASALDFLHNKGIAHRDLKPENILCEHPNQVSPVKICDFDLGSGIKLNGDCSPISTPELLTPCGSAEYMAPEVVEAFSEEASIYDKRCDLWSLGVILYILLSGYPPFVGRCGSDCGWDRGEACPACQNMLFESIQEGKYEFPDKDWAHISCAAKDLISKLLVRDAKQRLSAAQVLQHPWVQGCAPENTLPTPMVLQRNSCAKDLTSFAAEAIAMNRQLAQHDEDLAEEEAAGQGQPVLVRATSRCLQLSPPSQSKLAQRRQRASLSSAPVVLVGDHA

Row | Sequence | % activity (266 human kinases [1]) | % activity (266 human kinases [2]) | % activity (266 human kinases [3]) | % activity (266 human kinases [4]) | % activity (266 human kinases [5]) | % activity (266 human kinases [6]) | % activity (266 human kinases [7]) | % activity (266 human kinases [8]) | % activity (266 human kinases [9]) | % activity (266 human kinases [10])
1 | HRRIKAWLKKIKALARQLGVAA (mammal) [MMI-0500] | 6% | 198% | 19% | 43% | 24% | 20% | 194% |  |  | 
2 | YARAAARQARAKALNRQLGVA (mammal) [MMI-0200] |  |  |  |  |  |  |  | 98% | 97% | 128%
